From patent publication US6462189

B1: ubiquitin-binding monobody 422 (phage clone) (designed binder, not shown: large carriers; small tags and cut ends)
chain: VSDVPRDLEVVAATPTSLLISWDAPARWTLYYRITYGETGGNSPVQEFTVPGSKSTATISGLKPGVDYTITVYAVTRRWWWSKPISINYRT
notes: Library 4 clone obtained by panning on ubiquitin; no test of it as a single clone is reported
B2: ubiquitin-binding monobody 424 (phage clone) (designed binder, not shown: large carriers; small tags and cut ends)
chain: VSDVPRDLEVVAATPTSLLISWDAPGQRTFYYRITYGETGGNSPVQEFTVPGSKSTATISGLKPGVDYTITVYAVTRRWWASKPISINYRT
notes: as for B1

Target: T1, Yeast ubiquitin (yeast, UniProt P0CG63 1-76)
T1 construct: mature; also called soluble ubiquitin; free ubiquitin
Test: clone obtained by phage panning on immobilized ubiquitin
Protocol: Libraries 2 and 4, described in Example VI above, were used to select ubiquitin-binding monobodies. Ubiquitin (1 μg in 50 μl sodium bicarbonate buffer (100 mM, pH 8.5)) was immobilized in the wells of a microtiter plate, followed by blocking with BSA (3% in TBS). Panning was performed as described above. In the first two rounds, 1 μg of ubiquitin was immobilized per well, and bound phage were elute with an acidic solution. From the third to the sixth rounds, 0.1 μg of ubiquitin was immobilized per well and the phage were eluted either with an acidic solution or with TBS containing 10 μM ubiquitin.

T1 sequence (P0CG63 1-76 limits assumed): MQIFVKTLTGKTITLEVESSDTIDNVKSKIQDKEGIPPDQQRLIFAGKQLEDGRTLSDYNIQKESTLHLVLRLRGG

Row | Binder | binding result
1 | B1 | binds
2 | B2 | binds
